Measurements: patent US20210346432A1

Tests used:
ET140-p25 (human) = molecular target: T1, ET140-p25 (human); assay: peptide ELISA on streptavidin plate, antibody 1 ug/mL
T1 sequence (peptide, N-terminal biotin): SGSGLRCSSNTPPLTCQRY

ET140-p26 (human) = molecular target: T2, ET140-p26 (human); assay: as above
T2 sequence (peptide, N-terminal biotin): SGSGRCSSNTPPLTCQRYC

A450 (ET140-p25 (human)): 0.492
A450 (ET140-p26 (human)): 0.162
Substance: 901mIgG (antibody)
